Data published in patent US11390894B2, “Biological processes for the production of aryl sulfates” (CysBio ApS, priority 2014, dated 2022).

B1: SULT1A1 Rattus norvegicus: aryl sulfotransferase SULT1A1 from Rattus norvegicus (SEQ ID NO: 1), expressed in host cells (protein, listed as Rattus norvegicus)
chain: MEFSRPPLVHVKGIPLIKYFAETIGPLQNFTAWPDDLLISTYPKSGTTWMSEILDMIYQGGKLEKCGRAPIYARVPFLEFKCPGVPSGLETLEETPAPRLLKTHLPLSLLPQSLLDQKVKVIYIARNAKDVVVSYYNFYNMAKLHPDPGTWDSFLENFMDGEVSYGSWYQHVKEWWELRHTHPVLYLFYEDIKENPKREIKKILEFLGRSLPEETVDSIVHHTSFKKMKENCMTNYTTIPTEIMDHNVSPFMRKGTTGDWKNTFTVAQNERFDAHYAKTMTDCDFKFRCEL
B2: SULT1A1 Rattus norvegicus (Codon-optimized for E. coli): SULT1A1 from rat expressed from a gene codon-optimized for E. coli (protein, UniProt P17988 1-291, looked up)
Sulfotransferase 1A1: B1 chain

Tests used:
[1] = tested on: pHCA; test: Production of zosteric acid in E. coli from pHCA through heterologous expression of sulfotransferases; format: cell-based, Escherichia coli; conditions: culture media; M9 glucose, 0.1 mM IPTG, 0.1 mM pHCA, four days of growth
Text: A range of aryl sulfotransferases including SULT1A1 Rattus norvegicus (SEQ ID NO: 1), SULT1A1 Homo sapiens (SEQ ID NO: 2), SULT1A1 Equus caballus (SEQ ID NO: 3), SULT1A1 Sus scrofa domesticus (SEQ ID NO: 4), SULT1A1 Canis lupus familiaris (SEQ ID NO: 5) and SULT1E1 Gallus gallus domesticus (SEQ ID NO: 6) were expressed in Escherichia coli. […]. The nucleotide sequence of the gene encoding SEQ ID NO: 2 was codon optimized for expression in Escherichia coli (GeneArt, Life Technologies) and amplified by PCR using the primers in Table 1. The pETDuet-1 plasmid was digested with restriction endonucleases Ncol and Sal. The PCR products were then individually cloned into the plasmid pETDuet-1 using the Gibson reaction (New England Biolabs). The resulting plasmids were transformed into BL21(DE3)pLysS (Life Technologies).
The strains were grown in M9 minimal media containing glucose as a carbon source, and 0.1 mM IPTG for induction of gene expression as well as 0.1 mM p-coumaric acid (pHCA). After four days of growth, samples were withdrawn by filtration and analyzed by HPLC.
(§1) The concentration of p-courmaric acid (pHCA) and zosteric acid in the supernatant was quantified by high performance (HPLC) and compared to chemical standards. HPLC was done on a Thermo setup using a HS-F5 column and mobile phases: 5 mM ammonium formate pH 4.0 (A) and acetonitrile (B) at 1.5 mL min-1, using a gradient elution starting at 5% B. From 0.5 min after injection to 7 min, the fraction of B increased linearly from 5% to 60%, and between 9.5 min and 9.6 the fraction of B decreased back to 5%, and remaining there until 12 min. pHCA and zosteric acid were quantified by measuring absorbance at 277 nm.
Zosteric acid was formed with an aryl sulfotransferase heterologously expressed in a microorganism exemplified by E. coli supplied with the substrate.

[2] = tested on: p-coumaric acid; test: Production of zosteric acid in Saccharomyces cerevisiae expressing SULT1A1; format: cell-based; conditions: strain CEN.PK102-5B, modified Delft medium, 10 mM p-coumaric acid, overnight 30° C., supernatant
Protocol: as §1
The gene encoding aryl sulfotransferase SULT1A (Example 1) was cloned after a TEF1 promoter into an episomal plasmid with a 2-micron origin of replication as follows. The gene was amplified by PCR using primers CBJP633 and CBJP634. Alternatively, the gene was codon-optimized for E. coli and synthesized by GeneArt and amplified by primers CBJP635 and CBJP636. The TEF1 promoter (Jensen et al., 2014, FEMS Yeast Res 14: 238-248) was amplified by PCR using the primers PTEF1_fw and PTEF1_rv. Plasmid pCfB132 (Jensen et al., supra) was digested by restriction enzymes AsiSI and Nt.Bsml. […]

[3] = tested on: resveratrol; test: Percent conversion of substrate by E. coli cells expressing sulfotransferases; format: cell-based, Escherichia coli; conditions: 95 μM resveratrol, M9 medium, overnight 37° C.
Protocol: as §1
(§2) Different sulfotransferases were examined for their substrate specificities against three substrates. We tested the sulfotransferases mentioned in example 1, as well as additional ones. The genes encoding these were cloned as described in example 1 using the primers shown in the table below from cDNA libraries of the respective organisms, except for the SULT1A1 from rat (Rattus norvegicus) codon-optimized for E. coli (described above). The resulting vectors were transformed into BL21(DE3)pLysS.
(§3) The resulting strains were grown in M9 medium containing either 100 μM pHCA, 95 μM resveratrol or 87 M kaempferol. The cultures were grown overnight at 37° C., 300 rpm. The following day the supernatants were isolated and examined by HPLC as described in example 1.

[4] = tested on: pHCA; test: as above; format: cell-based, Escherichia coli; conditions: 100 μM pHCA, M9 medium, overnight 37° C.
Protocol: as §1, §2, §3

[5] = tested on: kaempferol; test: as above; format: cell-based, Escherichia coli; conditions: 87 μM kaempferol, M9 medium, overnight 37° C.
Protocol: as §1, §2, §3

Molecule	Zosteric acid formed [1]	pHCA remaining [1]	μM ZA (averages and standard deviations of replicate experiments) [2]	percent conversion of resveratrol [3]	percent conversion of pHCA [4]	percent conversion of kaempferol [5]
B1	0.10 mM	0.02 mM	37.8 ± 5.7 µM	93%	93%	95%
B2			46.2 ± 3.5 µM	58%	73%	38%
